Like-named read-outs stand apart in the source and are kept apart here.
T1: Abz-GGFLRKHGQ-EDDnp
T1 chain: GGFLRKHGQ


Assays:
[1] = target: T1, Abz-GGFLRKHGQ-EDDnp
[2] = target: bradykinin, P01042
[3] = tested on: Abz-GGFLRKHGQ-EDDnp; assay: Enzyme activity assay, kinetics of wild type rIDE and distal site mutants with fluorogenic substrate; assay type: biochemical; conditions: Abz-GGFLRKHGQ-EDDnp substrate
Procedure: FIG. 17. Effects of distal site mutations. (A) Comparison of the kinetics of wild type IDE with the distal site mutants. Activity was measured with varying amounts of Abz-[…]-EDDnp (SEQ ID NO:3) substrate as indicated. Either hyperbolic (Michaelis-Menten equation) or sigmoidal curves (Hill equation) were fit to the data. (B) Effect of bradykinin on the activity of wild type IDE and the distal site mutants. (C) Activation of wild type IDE and distal site mutants by ATP. Relative activity is the fold activation above the level of the wild type enzyme alone.
The activity of IDE was measured by following the increase in fluorescence upon hydrolysis at the L-R bond of the fluorogenic peptide Abz-[…]-EDDnp (SEQ ID NO:3) on a SpectraMax Gemini XS fluorescence plate reader using an excitation wavelength of 318 nm and emission wavelength of 419 nm. Reactions were carried out in 200 μl volumes containing 50 mM Tris-HCl, pH 7.4, 1.92 μg of wild type rIDE, 4.6 μg of rIDE-V360S, 4.3 μg rIDE-I374S, or 1.63 μg of rIDE-Y609F. For measurements of activation by bradykinin, IDE activity was determined with 10 μM Abz-[…]-EDDnp (SEQ ID NO:3) as substrate in 50 mM Tris-HCl buffer, pH 7.4. The amount of protein was 0.5 μg for wild type rIDE and 5 μg for each of the IDE distal-site mutants. Data were analyzed using Softmax 4.0 (Molecular Devices) and kinetic parameters calculated with Prism (Graphpad Software). […] Under these assay conditions, both wild type and mutant rIDE are almost completely dimeric.

Chain of bradykinin, P01042 (P01042 whole entry, looked up): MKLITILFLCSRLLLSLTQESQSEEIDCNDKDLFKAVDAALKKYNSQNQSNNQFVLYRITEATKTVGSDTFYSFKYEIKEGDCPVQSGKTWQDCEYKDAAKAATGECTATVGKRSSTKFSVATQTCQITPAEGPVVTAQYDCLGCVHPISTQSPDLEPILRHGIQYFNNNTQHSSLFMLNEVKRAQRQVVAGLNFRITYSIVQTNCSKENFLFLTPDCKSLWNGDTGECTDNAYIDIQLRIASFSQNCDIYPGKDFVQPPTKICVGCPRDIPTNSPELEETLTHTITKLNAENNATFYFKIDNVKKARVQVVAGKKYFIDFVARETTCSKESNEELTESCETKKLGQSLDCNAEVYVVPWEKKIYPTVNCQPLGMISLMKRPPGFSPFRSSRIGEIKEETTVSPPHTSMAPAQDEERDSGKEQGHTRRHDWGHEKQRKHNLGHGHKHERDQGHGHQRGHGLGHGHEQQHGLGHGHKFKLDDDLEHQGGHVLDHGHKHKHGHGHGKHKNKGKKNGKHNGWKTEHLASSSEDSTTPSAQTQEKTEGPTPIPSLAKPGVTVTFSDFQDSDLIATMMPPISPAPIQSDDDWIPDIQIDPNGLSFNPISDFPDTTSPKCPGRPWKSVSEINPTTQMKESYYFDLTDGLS

Row | Molecule | Hill coefficient [1] | Vmax [1] [nmol/min/mg] | kcat [1] [s⁻¹] | effect of bradykinin on the rate of Abz-GGFLRKHGQ-EDDnp hydrolysis [2] | Km [1] [µM] | Specific activity [1] | Heterotropic activation of Abz-GGFLRKHGQ-EDDnp hydrolysis [2] | Specific activity [3] [nmol/min/mg]
1 | wild type rat IDE, Example 1 (protein) TMNNPAIQRIEDHIVKSPEDKREYRGLELANGIKVLLISDPTTDKSSAALDVHIGSLSDPPNIPGLSHFCFHMLFLGTKKYPKENEYSQFLSEHAGSSNAFTSGEHTNYYFDVSHEHLEGALDRFAQFFLCPLFDASCKDREVNAVDSEHEKNVMNDAWRLFQLEKATGNPKHPFSKFGTGNKYTLETRPNQEGIDVREELLKFHSTYYSSNLMAICVLGRESLDDLTNLVVKLFSEVENKNVPLPEFPEHPFQEEHLKQLYKIVPIKDIRNLYVTFPIPDLQQYYKSNPGHYLGHLIGHEGPGSLLSELKSKGWVNTLVGGQKEGARGFMFFIINVDLTEEGLLHVEDIILHMFQYIQKLRAEGPQEWVFQECKDLNAVAFRFKDKERPRGYTSKIAGKLHYYPLNGVLTAEYLLEEFRPDLIDMVLDKLRPENVRVAIVSKSFEGKTDRTEQWYGTQYKQEAIPEDVIQKWQNADLNGKFKLPTKNEFIPTNFEILALEKDATPYPALIKDTAMSKLWFKQDDKFFLPKACLNFEFFSPFAYVDPLHCNMAYLYLELLKDSLNEYAYAAELAGLSYDLQNTIYGMYLSVKGYNDKQPILLKKITEKMATFEIDKKRFEIIKEAYMRSLNNFRAEQPHQHAMYYLRLLMTEVAWTKDELKEALDDVTLPRLKAFIPQLLSRLHIEALLHGNITKQAALGVMQMVEDTLIEHAHTKPLLPSQLVRYREVQLPDRGWFVYQRRNEVHNNCGIEIYYQTDMQSTSENMFLELFCQIISEPCFNTLRTKEQLGYIVFSGPRRANGIQGLRFIIQSEKPPHYLESRVEAFLITMEKAIEDMTEEAFQKHIQALAIRRLDKPKKLSAECAKYWGEIISQQYNYDRDNIEVAYLKTLSKDDIIKFYKEMLAVDAPRRHKVSVHVLAREMDSCPVVGEFPSQNDINLSEAPPLPQPEVIHNMTEFKRGLPLFPLVKPHINFMAAKL | 2.1 | 47.2 | 0.0867 | – | – | – | – | –
2 | IDE^K898A,K899A,S901A (protein) TMNNPAIQRIEDHIVKSPEDKREYRGLELANGIKVLLISDPTTDKSSAALDVHIGSLSDPPNIPGLSHFCEHMLFLGTKKYPKENEYSQFLSEHAGSSNAFTSGEHTNYYFDVSHEHLEGALDRFAQFFLCPLFDASCKDREVNAVDSEHEKNVMNDAWRLFQLEKATGNPKHPFSKFGTGNKYTLETRPNQEGIDVREELLKFHSTYYSSNLMAICVLGRESLDDLTNLVVKLFSEVENKNVPLPEFPEHPFQEEHLKQLYKIVPIKDIRNLYVTFPIPDLQQYYKSNPGHYLGHLIGHEGPGSLLSELKSKGWVNTLVGGQKEGARGFMFFIINVDLTEEGLLHVEDIILHMFQYIQKLRAEGPQEWVFQECKDLNAVAFRFKDKERPRGYTSKIAGKLHYYPLNGVLTAEYLLEEFRPDLIDMVLDKLRPENVRVAIVSKSFEGKTDRTEQWYGTQYKQEAIPEDVIQKWQNADLNGKFKLPTKNEFIPTNFEILALEKDATPYPALIKDTAMSKLWFKQDDKFFLPKACLNFEFFSPFAYVDPLHCNMAYLYLELLKDSLNEYAYAAELAGLSYDLQNTIYGMYLSVKGYNDKQPILLKKITEKMATFEIDKKRFEIIKEAYMRSLNNFRAEQPHQHAMYYLRLLMTEVAWTKDELKEALDDVTLPRLKAFIPQLLSRLHIEALLHGNITKQAALGVMQMVEDTLIEHAHTKPLLPSQLVRYREVQLPDRGWFVYQRRNEVHNNCGIEIYYQTDMQSTSENMFLELFCQIISEPCFNTLRTKEQLGYIVFSGPRRANGIQGLRFIIQSEKPPHYLESRVEAFLITMEKAIEDMTEEAFQKHIQALAIRRLDKPAALAAECAKYWGEIISQQYNYDRDNIEVAYLKTLSKDDIIKFYKEMLAVDAPRRHKVSVHVLAREMDSCPVVGEFPSQNDINLSEAPPLPQPEVIHNMTEFKRGLPLFPLVKPHINFMAAKL | 1.7 | 141 | 0.258 | the observed rate for IDE^K898A,K899A,S901A was significantly reduced | – | – | – | –
3 | IDE^R429S (protein) TMNNPAIQRIEDHIVKSPEDKREYRGLELANGIKVLLISDPTTDKSSAALDVHIGSLSDPPNIPGLSHFCEHMLFLGTKKYPKENEYSQFLSEHAGSSNAFTSGEHTNYYFDVSHEHLEGALDRFAQFFLCPLFDASCKDREVNAVDSEHEKNVMNDAWRLFQLEKATGNPKHPFSKFGTGNKYTLETRPNQEGIDVREELLKFHSTYYSSNLMAICVLGRESLDDLTNLVVKLFSEVENKNVPLPEFPEHPFQEEHLKQLYKIVPIKDIRNLYVTFPIPDLQQYYKSNPGHYLGHLIGHEGPGSLLSELKSKGWVNTLVGGQKEGARGFMFFIINVDLTEEGLLHVEDIILHMFQYIQKLRAEGPQEWVFQECKDLNAVAFRFKDKESPRGYTSKIAGKLHYYPLNGVLTAEYLLEEFRPDLIDMVLDKLRPENVRVAIVSKSFEGKTDRTEQWYGTQYKQEAIPEDVIQKWQNADLNGKFKLPTKNEFIPTNFEILALEKDATPYPALIKDTAMSKLWFKQDDKFFLPKACLNFEFFSPFAYVDPLHCNMAYLYLELLKDSLNEYAYAAELAGLSYDLQNTIYGMYLSVKGYNDKQPILLKKITEKMATFEIDKKRFEIIKEAYMRSLNNFRAEQPHQHAMYYLRLLMTEVAWTKDELKEALDDVTLPRLKAFIPQLLSRLHIEALLHGNITKQAALGVMQMVEDTLIEHAHTKPLLPSQLVRYREVQLPDRGWFVYQRRNEVHNNCGIEIYYQTDMQSTSENMFLELFCQIISEPCFNTLRTKEQLGYIVFSGPRRANGIQGLRFIIQSEKPPHYLESRVEAFLITMEKAIEDMTEEAFQKHIQALAIRRLDKPKKLSAECAKYWGEIISQQYNYDRDNIEVAYLKTLSKDDIIKFYKEMLAVDAPRRHKVSVHVLAREMDSCPVVGEFPSQNDINLSEAPPLPQPEVIHNMTEFKRGLPLFPLVKPHINFMAAKL | 1.7 | 42.3 | 0.0783 | – | – | – | – | –
4 | wild type rat IDE (rIDE), Example 2 (protein) MNNPAIQRIEDHIVKSPEDKREYRGLELANGIKVLLISDPTTDKSSAALDVHIGSLSDPPNIPGLSHFCEHMLFLGTKKYPKENEYSQFLSEHAGSSNAFTSGEHTNYYFDVSHEHLEGALDRFAQFFLCPLFDASCKDREVNAVDSEHEKNVMNDAWRLFQLEKATGNPKHPFSKFGTGNKYTLETRPNQEGIDVREELLKFHSTYYSSNLMAICVLGRESLDDLTNLVVKLFSEVENKNVPLPEFPEHPFQEEHLKQLYKIVPIKDIRNLYVTFPIPDLQQYYKSNPGHYLGHLIGHEGPGSLLSELKSKGWVNTLVGGQKEGARGFMFFIINVDLTEEGLLHVEDIILHMFQYIQKLRAEGPQEWVFQECKDLNAVAFRFKDKERPRGYTSKIAGKLHYYPLNGVLTAEYLLEEFRPDLIDMVLDKLRPENVRVAIVSKSFEGKTDRTEQWYGTQYKQEAIPEDVIQKWQNADLNGKFKLPTKNEFIPTNFEILALEKDATPYPALIKDTAMSKLWFKQDDKFFLPKACLNFEFFSPFAYVDPLHCNMAYLYLELLKDSLNEYAYAAELAGLSYDLQNTIYGMYLSVKGYNDKQPILLKKITEKMATFEIDKKRFEIIKEAYMRSLNNFRAEQPHQHAMYYLRLLMTEVAWTKDELKEALDDVTLPRLKAFIPQLLSRLHIEALLHGNITKQAALGVMQMVEDTLIEHAHTKPLLPSQLVRYREVQLPDRGWFVYQRRNEVHNNCGIEIYYQTDMQSTSENMFLELFCQIISEPCFNTLRTKEQLGYIVFSGPRRANGIQGLRFIIQSEKPPHYLESRVEAFLITMEKAIEDMTEEAFQKHIQALAIRRLDKPKKLSAECAKYWGEIISQQYNYDRDNIEVAYLKTLSKDDIIKFYKEMLAVDAPRRHKVSVHVLAREMDSCPVVGEFPSQNDINLSEAPPLPQPEVIHNMTEFKRGLPLFPLVKPHINFMAAKL | 1.8 | 35.5 | – | – | 15.9 | 8,131 nmol/min/mg for the wild type enzyme | approximately 4-fold for the wild type enzyme | –
5 | rIDE-E111F (protein) MNNPAIQRIEDHIVKSPEDKREYRGLELANGIKVLLISDPTTDKSSAALDVHIGSLSDPPNIPGLSHFCFHMLFLGTKKYPKENEYSQFLSEHAGSSNAFTSGEHTNYYFDVSHEHLEGALDRFAQFFLCPLFDASCKDREVNAVDSEHEKNVMNDAWRLFQLEKATGNPKHPFSKFGTGNKYTLETRPNQEGIDVREELLKFHSTYYSSNLMAICVLGRESLDDLTNLVVKLFSEVENKNVPLPEFPEHPFQEEHLKQLYKIVPIKDIRNLYVTFPIPDLQQYYKSNPGHYLGHLIGHEGPGSLLSELKSKGWVNTLVGGQKEGARGFMFFIINVDLTEEGLLHVEDIILHMFQYIQKLRAEGPQEWVFQECKDLNAVAFRFKDKERPRGYTSKIAGKLHYYPLNGVLTAEYLLEEFRPDLIDMVLDKLRPENVRVAIVSKSFEGKTDRTEQWYGTQYKQEAIPEDVIQKWQNADLNGKFKLPTKNEFIPTNFEILALEKDATPYPALIKDTAMSKLWFKQDDKFFLPKACLNFEFFSPFAYVDPLHCNMAYLYLELLKDSLNEYAYAAELAGLSYDLQNTIYGMYLSVKGYNDKQPILLKKITEKMATFEIDKKRFEIIKEAYMRSLNNFRAEQPHQHAMYYLRLLMTEVAWTKDELKEALDDVTLPRLKAFIPQLLSRLHIEALLHGNITKQAALGVMQMVEDTLIEHAHTKPLLPSQLVRYREVQLPDRGWFVYQRRNEVHNNCGIEIYYQTDMQSTSENMFLELFCQIISEPCFNTLRTKEQLGYIVFSGPRRANGIQGLRFIIQSEKPPHYLESRVEAFLITMEKAIEDMTEEAFQKHIQALAIRRLDKPKKLSAECAKYWGEIISQQYNYDRDNIEVAYLKTLSKDDIIKFYKEMLAVDAPRRHKVSVHVLAREMDSCPVVGEFPSQNDINLSEAPPLPQPEVIHNMTEFKRGLPLFPLVKPHINFMAAKL | – | – | – | – | – | 5.2 nmol/min/mg for the E111F mutant | – | 5.2

Source: patent US8632989B1, “Mutant insulin degrading enzyme and methods of use” (University of Kentucky Research Foundation, priority 2011, dated 2014)
